Results reported in patent US12269859B2, “Synthetic immune receptors and methods of use thereof” (Angeles Therapeutics, Inc., priority 2016, dated 2025).

B1: 030217-G04 (protein)
chain: MALPVTALLLPLALLLHAARPDEIVLTQSPATLSLSPGERATLSCSASSSVSYMHWYQQKPGQAPRLLIYDTSKLASGIPARFSGSGSGTDFTLTISSLEPEDVAVYYCFQGSVYPFTFGQGTKLEIKRGGGGSGGGGSGGGGSQVQLQESGPGLVKPSQTLSLTCTVSGGSISTSGMGVGWIRQHPGKGLEWIGHIWWDDDKRYNPALKSRVTISVDTSKNQFSLKLSSVTAADTAVYYCARMELWSYYFDYWGQGTLVTVSSLEGKPIPNPLLGLDSTGSGEDLKNVFPPEVAVFEPSKAEIAHTQKATLVCLATGFYPDHVELSWWVNGKEVHSGVCTDPQPLKEQPALNDSRYCLSSRLRVSATFWQNPRNHFRCQVQFYGLSENDEWTQDRAKPVTQIVSAEAWGRADCGITSASYHQGVLSATILYEILLGKATLYAVLVSALVLMAMVKRKDSRGRAKRSGSGATNFSLLKQAGDVEENPGPTSMALPVTALLLPLALLLHAARPDDIVMTQSPDSLTVSLGERTTINCKSSQSVLDSSKNKNSLAWYQQKPGQPPKLLLSWASTRESGIPDRFSGSGSGTDFTLTIDSLQPEDSATYYCQQSAHFPITFGQGTRLEIKGGGGSGGGGSGGGGSQVQLVQSGAEVKKPGASVKVSCKASGYTFTNYGMNWVKQAPGQGLKWMGWINTYTGEPTYADDFKGRVTMTSDTSTSTAYLELHNLRSDDTAVYYCARWSWSDGYYVYFDYWGQGTTVTVSSTREQKLISEEDGSGIQNPDPAVYQLRDSKSSDKSVCLFTDFDSQTNVSQSKDSDVYITDKCVLDMRSMDFKSNSAVAWSNKSDFACANAFNNSIIPEDTFFPSSDVPCDVKLVEKSFETDTNLNFQNLSVIGFRILLLKVAGFNLLMTLRLWSSRAKRSGSGVKQTLNFDLLKLAGDVESNPGPSRGHMTEYKPTVRLATRDDVPRAVRTLAAAFADYPATRHTVDPDRHIERVTELQELFLTRVGLDIGKVWVADDGAAVAVWTTPESVEAGAVFAEIGPRMAELSGSRLAAQQQMEGLLAPHRPKEPAWFLATVGVSPDHQGKGLGSAVVLPGVEAAERAGVPAFLETSAPRNLPFYERLGFTVTADVEVPEGPRTWCMTRKPGA
B2: 041216 G04 (protein)
chain: MALPVTALLLPLALLLHAARPDEIVLTQSPATLSLSPGERATLSCSASSSVSYMHWYQQKPGQAPRLLIYDTSKLASGIPARFSGSGSGTDFTLTISSLEPEDVAVYYCFQGSVYPFTFGQGTKLEIKRGGGGSGGGGSGGGGSQVQLQESGPGLVKPSQTLSLTCTVSGGSISTSGMGVGWIRQHPGKGLEWIGHIWWDDDKRYNPALKSRVTISVDTSKNQFSLKLSSVTAADTAVYYCARMELWSYYFDYWGQGTLVTVSSLEGKPIPNPLLGLDSTGSGEDLKNVFPPEVAVFEPSKAEIAHTQKATLVCLATGFYPDHVELSWWVNGKEVHSGVCTDPQPLKEQPALNDSRYCLSSRLRVSATFWQNPRNHFRCQVQFYGLSENDEWTQDRAKPVTQIVSAEAWGRADCGITSASYHQGVLSATILYEILLGKATLYAVLVSALVLMAMVKRKDSRGRAKRSGSGATNFSLLKQAGDVEENPGPTSMDWIWRILFLVGAATGAHSFEVQLVESGGGLVQAGGSLRLSCAASGSIFSGNVMGWYRRQAPGKEREWVAAIASGGSIYYRDSVKGRFTISRDNAKNTVYLQMNSLKPEDTAVYYCNSHPPTLPYWGLGTQVTVSSTREQKLISEEDGSGIQNPDPAVYQLRDSKSSDKSVCLFTDFDSQTNVSQSKDSDVYITDKCVLDMRSMDFKSNSAVAWSNKSDFACANAFNNSIIPEDTFFPSSDVPCDVKLVEKSFETDTNLNFQNLSVIGFRILLLKVAGFNLLMTLRLWSSRAKRSGSGVKQTLNFDLLKLAGDVESNPGPSRGHMTEYKPTVRLATRDDVPRAVRTLAAAFADYPATRHTVDPDRHIERVTELQELFLTRVGLDIGKVWVADDGAAVAVWTTPESVEAGAVFAEIGPRMAELSGSRLAAQQQMEGLLAPHRPKEPAWFLATVGVSPDHQGKGLGSAVVLPGVEAAERAGVPAFLETSAPRNLPFYERLGFTVTADVEVPEGPRTWCMTRKPGA
modifications: Synthetic polynucleotide encoding a SIR
B3: 030217-H02 (protein)
chain: MALPVTALLLPLALLLHAARPDEIVLTQSPATLSLSPGERATLSCSASSSVSYMHWYQQKPGQAPRLLIYDTSKLASGIPARFSGSGSGTDFTLTISSLEPEDVAVYYCFQGSVYPFTFGQGTKLEIKRGGGGSGGGGSGGGGSQVQLQESGPGLVKPSQTLSLTCTVSGGSISTSGMGVGWIRQHPGKGLEWIGHIWWDDDKRYNPALKSRVTISVDTSKNQFSLKLSSVTAADTAVYYCARMELWSYYFDYWGQGTLVTVSSLEGKPIPNPLLGLDSTGSGEDLKNVFPPEVAVFEPSKAEIAHTQKATLVCLATGFYPDHVELSWWVNGKEVHSGVCTDPQPLKEQPALNDSRYCLSSRLRVSATFWQNPRNHFRCQVQFYGLSENDEWTQDRAKPVTQIVSAEAWGRADCGITSASYHQGVLSATILYEILLGKATLYAVLVSALVLMAMVKRKDSRGRAKRSGSGATNFSLLKQAGDVEENPGPTSMALPVTALLLPLALLLHAARPDIQMTQSTSSLSASLGDRVTISCSASQGINNYLNWYQQKPDGTVELLIYYTSTLQSGVPSRFSGSGSGTDYSLTISNLEPEDIGTYYCQQYSKLPRTFGGGTKLEIKGGGGSGGGGSGGGGSQVQLQQSGSELMMPGASVKISCKATGYTFSNYWIEWVKQRPGHGLEWIGEILPGTGRTIYNEKFKGKATFTADISSNTVQMQLSSLTSEDSAVYYCARRDYYGNFYYAMDYWGQGTSVTVSSTREQKLISEEDGSGIQNPDPAVYQLRDSKSSDKSVCLFTDFDSQTNVSQSKDSDVYITDKCVLDMRSMDFKSNSAVAWSNKSDFACANAFNNSIIPEDTFFPSSDVPCDVKLVEKSFETDTNLNFQNLSVIGFRILLLKVAGFNLLMTLRLWSSRAKRSGSGVKQTLNFDLLKLAGDVESNPGPSRGHMTEYKPTVRLATRDDVPRAVRTLAAAFADYPATRHTVDPDRHIERVTELQELFLTRVGLDIGKVWVADDGAAVAVWTTPESVEAGAVFAEIGPRMAELSGSRLAAQQQMEGLLAPHRPKEPAWFLATVGVSPDHQGKGLGSAVVLPGVEAAERAGVPAFLETSAPRNLPFYERLGFTVTADVEVPEGPRTWCMTRKPGA
B4: 040716-I04 (protein)
chain: MALPVTALLLPLALLLHAARPDEIVLTQSPATLSLSPGERATLSCSASSSVSYMHWYQQKPGQAPRLLIYDTSKLASGIPARFSGSGSGTDFTLTISSLEPEDVAVYYCFQGSVYPFTFGQGTKLEIKRGGGGSGGGGSGGGGSQVQLQESGPGLVKPSQTLSLTCTVSGGSISTSGMGVGWIRQHPGKGLEWIGHIWWDDDKRYNPALKSRVTISVDTSKNQFSLKLSSVTAADTAVYYCARMELWSYYFDYWGQGTLVTVSSLEGKPIPNPLLGLDSTGSGEDLKNVFPPEVAVFEPSKAEIAHTQKATLVCLATGFYPDHVELSWWVNGKEVHSGVCTDPQPLKEQPALNDSRYCLSSRLRVSATFWQNPRNHFRCQVQFYGLSENDEWTQDRAKPVTQIVSAEAWGRADCGITSASYHQGVLSATILYEILLGKATLYAVLVSALVLMAMVKRKDSRGRAKRSGSGATNFSLLKQAGDVEENPGPTSTMALPVTALLLPLALLLHAARPDIVMTQTPLTLSVTIGQPASISCKSSQSLLDSDGKTYLNWLLQRPGQSPERLIYLVSKLDSGVPDRFTGSGSGTDFTLKISRVEAEDLGVYCCWQGTHFPYTFGGGTKVEIKGGGGGSGGGGSGGGGSQVQLQQPGAELVRPGASVKLSCKASGYTFTSYWMNWVKQRPGQGLEWIGMIDPSDSETHYNHIFKDKATLTVDKSSSTAYLQLSSLTSEDSAVYYCARNLYLWGQGTSVTVSSTREQKLISEEDGSGIQNPDPAVYQLRDSKSSDKSVCLFTDFDSQTNVSQSKDSDVYITDKCVLDMRSMDFKSNSAVAWSNKSDFACANAFNNSIIPEDTFFPSSDVPCDVKLVEKSFETDTNLNFQNLSVIGFRILLLKVAGFNLLMTLRLWSSRAKRSGSGVKQTLNFDLLKLAGDVESNPGPSRGHMTEYKPTVRLATRDDVPRAVRTLAAAFADYPATRHTVDPDRHIERVTELQELFLTRVGLDIGKVWVADDGAAVAVWTTPESVEAGAVFAEIGPRMAELSGSRLAAQQQMEGLLAPHRPKEPAWFLATVGVSPDHQGKGLGSAVVLPGVEAAERAGVPAFLETSAPRNLPFYERLGFTVTADVEVPEGPRTWCMTRKPGA
modifications: Synthetic polynucleotide encoding a SIR
B5: 030217-J05 (protein)
chain: MALPVTALLLPLALLLHAARPDEIVLTQSPATLSLSPGERATLSCSASSSVSYMHWYQQKPGQAPRLLIYDTSKLASGIPARFSGSGSGTDFTLTISSLEPEDVAVYYCFQGSVYPFTFGQGTKLEIKRGGGGSGGGGSGGGGSQVQLQESGPGLVKPSQTLSLTCTVSGGSISTSGMGVGWIRQHPGKGLEWIGHIWWDDDKRYNPALKSRVTISVDTSKNQFSLKLSSVTAADTAVYYCARMELWSYYFDYWGQGTLVTVSSLEGKPIPNPLLGLDSTGSGEDLKNVFPPEVAVFEPSKAEIAHTQKATLVCLATGFYPDHVELSWWVNGKEVHSGVCTDPQPLKEQPALNDSRYCLSSRLRVSATFWQNPRNHFRCQVQFYGLSENDEWTQDRAKPVTQIVSAEAWGRADCGITSASYHQGVLSATILYEILLGKATLYAVLVSALVLMAMVKRKDSRGRAKRSGSGATNFSLLKQAGDVEENPGPTSMALPVTALLLPLALLLHAARPDIQMTQSPASLSASVGETVTIICRASVNIYSYLAWYQQKQGKSPQLLVYNAKILAEGVPSRFSGSGSGTQFSLKINSLQPEDFGSYYCQHHYGTFTFGSGTKLEIKRGGGGSGGGGSGGGGSQVQLKESGPGLVAPSQSLSITCTISGFSLTSYGVHWVRQPPGKGLEWLVVIWSDGSTTYNSALKSRLSISKDNSKSQVFLKMNSLQTDDTAIYYCASHYGSTLAFASWGHGTLVTVSAATREQKLISEEDGSGIQNPDPAVYQLRDSKSSDKSVCLFTDFDSQTNVSQSKDSDVYITDKCVLDMRSMDFKSNSAVAWSNKSDFACANAFNNSIIPEDTFFPSSDVPCDVKLVEKSFETDTNLNFQNLSVIGFRILLLKVAGFNLLMTLRLWSSRAKRSGSGVKQTLNFDLLKLAGDVESNPGPSRGHMTEYKPTVRLATRDDVPRAVRTLAAAFADYPATRHTVDPDRHIERVTELQELFLTRVGLDIGKVWVADDGAAVAVWTTPESVEAGAVFAEIGPRMAELSGSRLAAQQQMEGLLAPHRPKEPAWFLATVGVSPDHQGKGLGSAVVLPGVEAAERAGVPAFLETSAPRNLPFYERLGFTVTADVEVPEGPRTWCMTRKPGA

Tested on: target antigen-expressing cell line
Assay: Jurkat NFAT-GFP assay, coculture with target cell lines expressing the respective target antigen (summary Table 10A)
Assay type: cell-based, human
Set-up: key: The signs +/−, +, 2+ etc. after the name of the cell lines indicate the relative degree of positivity on the Jurkat-NFAT-GFP assay as measured by the % GFP positive cells; +: relative degree of positivity on the Jurkat-NFAT-GFP assay as measured by the % GFP positive cells; 2+: relative degree of positivity on the Jurkat-NFAT-GFP assay as measured by the % GFP positive cells
Details: relative % GFP positive cells; for NFAT-GFP ASSAY Positive Cell lines: NALM6: SIR-expressing Jurkat-NFAT-GFP cells cocultured with NALM6; for NFAT-GFP ASSAY Positive Cell lines: RAJI: SIR-expressing Jurkat-NFAT-GFP cells cocultured with RAJI
Method in brief: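 Jurkat cells carrying an NFAT-driven GFP reporter and lentivirally expressing a SIR were cocultured with antigen-bearing target cells (E:T ~1:2) for about 4–18 h. GFP induction read by flow cytometry as % GFP+ cells, scored positive and graded (+/−, +, 2+) against parental Jurkat-NFAT-GFP cells.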

Molecule	NFAT-GFP ASSAY Positive Cell lines: NALM6	NFAT-GFP ASSAY Positive Cell lines: RAJI	NFAT-GFP ASSAY Positive Cell lines: L363 (SIR-expressing Jurkat-NFAT-GFP cells cocultured with L363)	NFAT-GFP ASSAY Positive Cell lines: U266 (SIR-expressing Jurkat-NFAT-GFP cells cocultured with U266)
B1	RAJI (+), NALM6 (+)	RAJI (+), NALM6 (+)	–	–
B2	–	RAJI (+/−)	–	–
B3	(+)	RAJI (2+), NALM6	–	–
B4	–	RAJI (+/−), U266	(+/−), L363 (+/−)	(+/−), L363 (+/−)
B5	(+/−)	RAJI (2+), NALM6	–	–
